The values below come from doi:10.1101/2021.01.28.428602 (bioRxiv, 2021).

Read-outs that look alike come from different tables or passages of the source.

Test [1] has as its target rat α1β3 GABAA receptor on HEK293T cells (Rattus norvegicus, UniProt P62813;P63079). Briefly: immunostaining of cells or tissue.
In test [2] the target is α1β3 GABAA receptor on COS7 cells (Rattus norvegicus (construct of ref. 7), UniProt P62813;P63079). Briefly: immunostaining of cells or tissue.
Test [3] addresses α1β3γ2 GABAA receptor on COS7 cells (Rattus norvegicus (gamma-2 rat or …, UniProt P62813;P63079;P18508)). Briefly: immunostaining of cells or tissue.
Test [4] has as its target GABAA receptor β3 subunit alone on COS7 cells (Rattus norvegicus (construct of ref. 7), UniProt P63079). Kind of test: immunostaining of cells or tissue.
In test [5] the target is GABAA receptor γ2 subunit alone on COS7 cells (Rattus norvegicus (rat or mouse …, UniProt P18508)). Kind of test: immunostaining of cells or tissue.
The target of test [6] is T1, α5β3γ2 GABAA receptor on COS7 cells (Rattus norvegicus (gamma-2 rat or mouse …, UniProt P19969;P63079;P18508)). Kind of test: immunostaining of cells or tissue.
The target of test [7] is T2, α2β3γ2 GABAA receptor on COS7 cells (Rattus norvegicus (gamma-2 rat or mouse …, UniProt P23576;P63079;P18508)). Kind of test: immunostaining of cells or tissue.
In test [8] the target is T3, α3β3γ2 GABAA receptor on COS7 cells (Rattus norvegicus (gamma-2 rat or mouse …, UniProt P20236;P63079;P18508)). Briefly: immunostaining of cells or tissue.
For test [9], the target named is T4, α4β3γ2 GABAA receptor on COS7 cells (Rattus norvegicus (gamma-2 rat or mouse …, UniProt P28471;P63079;P18508)). Briefly: immunostaining of cells or tissue.
Test [10] has as its target rat α1β3γ2 GABAA receptor on HEK293T cells (Rattus norvegicus, UniProt P62813;P63079;P18508). Kind of test: flow cytometry on cells. A general note: In flow cytometry, cells or beads pass a laser one at a time.
Test [11] has as its target T1, α5β3γ2 GABAA receptor on COS7 cells. Briefly: immunostaining of cells or tissue. The source holds these as a separate data set.
Test [12] concerns the target β3γ2 GABAA receptor subunits on COS7 cells (Rattus norvegicus (gamma-2 rat or …, UniProt P63079;P18508)). Kind of test: immunostaining of cells or tissue.
Test [13] addresses T2, α2β3γ2 GABAA receptor on COS7 cells. Kind of test: immunostaining of cells or tissue. The source holds these as a separate data set.
In test [14] the target is T3, α3β3γ2 GABAA receptor on COS7 cells. Kind of test: immunostaining of cells or tissue. The source holds these as a separate data set.
The target in test [15] is α1β2γ2 GABAA receptor on COS7 cells (Rattus norvegicus (gamma-2 rat or …, UniProt P62813;P63138;P18508)). Briefly: immunostaining of cells or tissue.
The target of test [16] is T4, α4β3γ2 GABAA receptor on COS7 cells. Kind of test: immunostaining of cells or tissue. This is another data set of the same source.

T2 sequence (P23576 29-451, chain 1 of 3): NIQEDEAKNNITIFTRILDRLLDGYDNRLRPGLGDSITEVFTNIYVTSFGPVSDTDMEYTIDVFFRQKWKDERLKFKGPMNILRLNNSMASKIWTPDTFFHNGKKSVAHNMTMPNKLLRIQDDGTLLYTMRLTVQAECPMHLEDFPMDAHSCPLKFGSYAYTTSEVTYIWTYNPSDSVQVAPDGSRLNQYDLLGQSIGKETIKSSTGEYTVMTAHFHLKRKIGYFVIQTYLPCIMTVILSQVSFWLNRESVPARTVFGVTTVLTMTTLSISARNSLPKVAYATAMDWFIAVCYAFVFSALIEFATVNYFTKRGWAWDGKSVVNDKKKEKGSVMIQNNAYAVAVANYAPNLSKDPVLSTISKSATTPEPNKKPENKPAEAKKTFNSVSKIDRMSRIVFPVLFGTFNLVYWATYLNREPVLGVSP
T2 sequence (P63079 26-473, chain 2 of 3): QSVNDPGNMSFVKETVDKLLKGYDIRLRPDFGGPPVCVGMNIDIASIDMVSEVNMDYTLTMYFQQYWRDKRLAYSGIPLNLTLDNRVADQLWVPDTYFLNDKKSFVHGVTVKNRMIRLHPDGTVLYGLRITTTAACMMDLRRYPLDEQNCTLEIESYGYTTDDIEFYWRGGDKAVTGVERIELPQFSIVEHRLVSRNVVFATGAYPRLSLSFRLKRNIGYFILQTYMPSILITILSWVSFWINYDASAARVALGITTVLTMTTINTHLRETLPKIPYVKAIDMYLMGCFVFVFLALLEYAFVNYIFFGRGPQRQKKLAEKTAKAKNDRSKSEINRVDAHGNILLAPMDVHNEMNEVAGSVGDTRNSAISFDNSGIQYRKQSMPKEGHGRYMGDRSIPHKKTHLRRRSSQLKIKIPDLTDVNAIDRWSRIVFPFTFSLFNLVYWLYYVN
T2 sequence (P18508 39-466, chain 3 of 3): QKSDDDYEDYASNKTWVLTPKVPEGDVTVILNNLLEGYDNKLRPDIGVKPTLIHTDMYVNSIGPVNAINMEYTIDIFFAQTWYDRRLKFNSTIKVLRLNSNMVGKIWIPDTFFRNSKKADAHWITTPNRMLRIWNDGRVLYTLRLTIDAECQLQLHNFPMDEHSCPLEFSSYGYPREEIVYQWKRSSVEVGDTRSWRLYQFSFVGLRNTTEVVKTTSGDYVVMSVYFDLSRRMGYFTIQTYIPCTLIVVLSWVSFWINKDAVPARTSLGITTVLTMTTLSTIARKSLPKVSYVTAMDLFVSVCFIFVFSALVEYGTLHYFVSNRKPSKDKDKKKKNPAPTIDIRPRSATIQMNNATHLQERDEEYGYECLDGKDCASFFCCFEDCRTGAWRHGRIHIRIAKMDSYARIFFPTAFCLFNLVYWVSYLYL
GABAA receptor γ2 subunit alone on COS7 cells (Rattus norvegicus, sequence (P18508 39-466): as the sequence (P18508 39-466, chain 3 of 3) above
α1β3γ2 GABAA receptor on COS7 cells (Rattus norvegicus, sequence (P62813 28-455, chain 1 of 3): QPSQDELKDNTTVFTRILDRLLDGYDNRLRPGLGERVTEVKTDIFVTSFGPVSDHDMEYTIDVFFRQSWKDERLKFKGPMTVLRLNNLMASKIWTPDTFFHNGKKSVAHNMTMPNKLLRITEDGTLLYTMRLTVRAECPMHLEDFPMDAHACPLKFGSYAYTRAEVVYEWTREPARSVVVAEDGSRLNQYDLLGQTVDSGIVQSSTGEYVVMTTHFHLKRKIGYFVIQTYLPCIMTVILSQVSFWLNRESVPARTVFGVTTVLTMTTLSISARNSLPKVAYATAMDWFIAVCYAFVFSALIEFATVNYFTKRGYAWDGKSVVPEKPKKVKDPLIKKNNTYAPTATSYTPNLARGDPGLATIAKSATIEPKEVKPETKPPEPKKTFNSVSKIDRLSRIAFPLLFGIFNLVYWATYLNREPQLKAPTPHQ
α1β3γ2 GABAA receptor on COS7 cells (Rattus norvegicus, sequence (P63079 26-473, chain 2 of 3): as the sequence (P63079 26-473, chain 2 of 3) above
α1β3γ2 GABAA receptor on COS7 cells (Rattus norvegicus, sequence (P18508 39-466, chain 3 of 3): as the sequence (P18508 39-466, chain 3 of 3) above
rat α1β3γ2 GABAA receptor on HEK293T cells, sequence (P62813 28-455, chain 1 of 3): as the sequence (P62813 28-455, chain 1 of 3) above
rat α1β3γ2 GABAA receptor on HEK293T cells, sequence (P63079 26-473, chain 2 of 3): as the sequence (P63079 26-473, chain 2 of 3) above
rat α1β3γ2 GABAA receptor on HEK293T cells, sequence (P18508 39-466, chain 3 of 3): as the sequence (P18508 39-466, chain 3 of 3) above
GABAA receptor β3 subunit alone on COS7 cells, sequence (P63079 26-473): as the sequence (P63079 26-473, chain 2 of 3) above

B1: human monoclonal GABAAR antibody #113-115 (antibody, V domains shown)
VH: QVQLVQSGAEVKKPGASVKVSCKASGYTFISYDINWVRQATGQGLEWMGGMDPKSGNTGYAQKFQGRVTMTTNTAISTAYMELSSLRSEDTAVYYCVRGEQSYDRTGYSDWFDPWGQGTLVTVSS
VL: not shown
Take B1: the binding result in [1] was “binds”; in test [2] it was “binds”; in test [3], “binds”; in test [4], “no binding (tested: 5 μg/ml)”; in [5] it was “no binding (tested: 5 μg/ml)”; in [6], “no binding”. Also, the binding result is reported as “no binding” in [7], “no binding” in test [8], “no binding” in [9] and “binds” in test [10].

B2: human monoclonal GABAAR antibody #113-175 (antibody, V domains shown)
VH: EVQLLESGEGLVQPGGSLRLSCAASGFTFKTYAMSWVRQAPGKGLEWVSAISGSGASTYYADFVEGRFTISRDNSKNTLYLQMNSLRAEDTAVYYCAKEPPAMVWFGGGYFDYWGQGTLVTVSS
VL: EIVLTQSPATLSLSPGERATLSCRASQSVSSYLAWYQQKPGQAPRLLIYDASNRATGIPARFSGSGSGTDFTLTISSLEPEDFAVYYCQQRSNWPPYSFGQGTKLEIK
With B2, the binding result in [11] is reported as “no binding (tested: 5 μg/ml)”; in test [2] it was “no binding (tested: 5 μg/ml)”; in [12], “no binding (tested: 5 μg/ml)”; in test [13] it was “no binding (tested: 5 μg/ml)”; in test [3] it was “binds”; in test [4], “no binding (tested: 5 μg/ml)”. In addition, the binding result is on record as “no binding (tested: 5 μg/ml)” in [5]; “no binding (tested: 5 μg/ml)” in test [14]; “binds” in test [15]; “no binding (tested: 5 μg/ml)” in test [16]; “binds” in [10].
